Test results reported in publication PMC4812251.

Substrate: CC(=O)O
Experiment: purified protein
Conditions: ATP 10 mM, CoA 0.1 mM, MgCl2 5 mM, acetate salt 2.5-80 mM

B1: DtACS (Dunaliella tertiolecta) (protein)
chain: MKCSALPAGSRPQALATHTSMQAPLLLRSLAPSVPKLAQPAGTPLVHSSLPCYRKSRSCSHLASASSTAPGSTTMKPQPLLTNFIQSKEEYDALYARSIADPASFWGDVAEQFHWEKKWDPDHHSFNFDVTKGPINVEWFKGGFTNICYNALDRHVMTGHGNQHCMLFEGNEPGSDGAMTYTQVLDEVCRLANWMKAQGIGKGDCVAIYMPMVMQLPIAMLACARIGAVHSVVFGGFSADALAGRMEDCKARVLLTCNGGMRATKKIELKQIADQAIEMCASRGHTVDSVLVFANHKDGVAGAEAAGTPFTQGRDAWWQPTLAEFPALCDVAWVPAEHPLFLLYTSGSTGKPKGVLHTTGGYMVYAATTTKHAFQLQPGDVFWCTADCGWITGHSYLAYGPLLNRAVSVVFEGVPTHPTPARSWEIIDKYQVKQFYTAPTALRSLMRSGDEWLSSTSRQSLQVLGTVGEPINPEAWHWFHDLVGNGRCPVVDTWWQTETGGHMILPLPRAWPAKPGSATLPFFGVEPVILDDKGVELQGECEGLLMMRRPWPSTLRSVYGDHKRYEENYFGPYPGYYFTGDGARRDKDGYYWITGRVDDVINVSGHRIGTAEVESAIAAHHDCAEAAVAGYEHPVKGQGIYAFVVLKEGVVPNDQLKKEMWTNVRTTIGAFAAPDVIHWAPGLPKTRSGKIMRRVLRKIAGGQENELGDTSTLADPSIVRQLIETRN
Km (Tris-Cl pH 8.0, 37 °C (general assay)): 3.59 mM | Km (Tris-Cl pH 8.0, 37 °C (general assay; mix lists 10 mM potassium acetate as substrate)): 4.66 mM
